Legend:
刺突S蛋白-鼠Fc融合蛋白 (S-mFc) = target: T1, 刺突S蛋白-鼠Fc融合蛋白 (S-mFc) (SARS-CoV-2; mouse, UniProt P0DTC2 14-1213); experiment: FACS, blocking of S-mFc binding to 293T-ACE2 cells
T1 construct: domain: S蛋白全长区段

[1] = target: T2, SARS-CoV-2 S1蛋白 (ACRO Biosystems) (SARS-CoV-2, UniProt P0DTC2 16-685); experiment: competition ELISA, S1 coated, HRP-hACE2-Fc as competitor
T2 construct: domain: S1

B1: 人源化抗体hS1B-30-3 (humanized antibody hS1B-30-3) (antibody, V domains shown)
VH: EVQLVESGGGLVQPGGSLRLSCAASGFTFSDAWMDWVRQAPGKGLDWVAQIRNKANSHATNYADSVKGRFTISRDDSKNSVYLQMNSLKTEDTAVYYCIRGLTGYVLDYWGQGTTVTVSS
VL: DIQMTQSPSSLSASVGDRVTITCKASQNVRTAVAWYQQKPGQSPKALIFLASNRHTGVPDRFSGSGSGTDFTLTISSLQPEDFATYFCLQHWNYPLTFGGGTKVEIKR
- IC50 (刺突S蛋白-鼠Fc融合蛋白 (S-mFc)): 0.00691 µg/mL
- EC50 [1]: 0.0331 µg/mL

Reference: CN114106163A (ANYUAN MEDICINE SCIENCE AND TECH SHANGHAI LIMITED COMPANY, dated 2022)
